The source of these data is patent publication US20250084186A1 (published 2025).

For assay [1], the target named is Ha16-1(3,5)18[ENPP3]_H1L1. Kind of assay: Biacore; kinetics. Background: Surface plasmon resonance follows binding to a sensor surface in real time, without labels.
Assay [2] concerns the target ENPP3-A[ENPP3]_H1L1. Kind of assay: Biacore; kinetics.
Assay [3] deals with Ha16-1(3,5)5[ENPP3]_H1L1. Put plainly: Biacore; kinetics.
Assay [4] deals with Ha16-1(3,5)18[ENPP3]_H1L1. Kind of assay: Biacore; steady state.
Assay [5] concerns the target ENPP3-A[ENPP3]_H1L1. Put plainly: Biacore; steady state.
The target in assay [6] is Ha16-1(3,5)5[ENPP3]_H1L1. Kind of assay: Biacore; steady state.
The target of assay [7] is T1, cynomolgus ENPP3 (cynomolgus, UniProt A0A2K5TKP4 49-874).
T1 chain: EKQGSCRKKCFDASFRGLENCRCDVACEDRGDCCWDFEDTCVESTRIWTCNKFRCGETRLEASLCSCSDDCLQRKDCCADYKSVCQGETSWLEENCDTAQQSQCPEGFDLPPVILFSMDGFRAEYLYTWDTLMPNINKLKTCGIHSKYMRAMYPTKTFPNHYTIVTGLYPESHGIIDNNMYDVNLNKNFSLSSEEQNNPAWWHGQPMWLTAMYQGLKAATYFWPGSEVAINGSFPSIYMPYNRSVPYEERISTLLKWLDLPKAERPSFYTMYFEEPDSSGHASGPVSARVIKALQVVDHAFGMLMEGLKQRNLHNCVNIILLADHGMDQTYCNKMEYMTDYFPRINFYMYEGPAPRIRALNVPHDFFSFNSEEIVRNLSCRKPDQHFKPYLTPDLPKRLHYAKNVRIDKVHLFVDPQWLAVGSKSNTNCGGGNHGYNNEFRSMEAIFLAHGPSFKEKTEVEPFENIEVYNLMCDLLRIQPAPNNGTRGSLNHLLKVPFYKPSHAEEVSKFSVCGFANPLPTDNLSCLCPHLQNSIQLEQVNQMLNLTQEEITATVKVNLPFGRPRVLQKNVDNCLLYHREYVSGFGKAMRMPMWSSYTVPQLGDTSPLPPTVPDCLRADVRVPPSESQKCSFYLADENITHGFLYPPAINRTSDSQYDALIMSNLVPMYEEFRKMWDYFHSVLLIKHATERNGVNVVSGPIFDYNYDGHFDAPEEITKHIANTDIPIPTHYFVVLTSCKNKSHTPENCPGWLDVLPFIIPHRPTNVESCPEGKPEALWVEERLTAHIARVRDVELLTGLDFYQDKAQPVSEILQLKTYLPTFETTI
Kind of assay: Biacore; kinetics.

Assay [8] deals with Human ENPP3. Put plainly: Biacore; kinetics.
The target in assay [9] is T1, cynomolgus ENPP3. Kind of assay: Biacore; steady state.
In assay [10] the target is Human ENPP3. Put plainly: Biacore; steady state.
Assay [11] addresses human CD28 (human, UniProt P10747 19-152). Put plainly: -; scFv VHVL, 1+1 Fab-scFv-Fc.

B1: Cyno ENPP3 (enzyme)
chain: EKQGSCRKKCFDASFRGLENCRCDVACEDRGDCCWDFEDTCVESTRIWTCNKFRCGETRLEASLCSCSDDCLQRKDCCADYKSVCQGETSWLEENCDTAQQSQCPEGFDLPPVILFSMDGFRAEYLYTWDTLMPNINKLKTCGIHSKYMRAMYPTKTFPNHYTIVTGLYPESHGIIDNNMYDVNLNKNFSLSSEEQNNPAWWHGQPMWLTAMYQGLKAATYFWPGSEVAINGSFPSIYMPYNRSVPYEERISTLLKWLDLPKAERPSFYTMYFEEPDSSGHASGPVSARVIKALQVVDHAFGMLMEGLKQRNLHNCVNIILLADHGMDQTYCNKMEYMTDYFPRINFYMYEGPAPRIRALNVPHDFFSFNSEEIVRNLSCRKPDQHFKPYLTPDLPKRLHYAKNVRIDKVHLFVDPQWLAVGSKSNTNCGGGNHGYNNEFRSMEAIFLAHGPSFKEKTEVEPFENIEVYNLMCDLLRIQPAPNNGTRGSLNHLLKVPFYKPSHAEEVSKFSVCGFANPLPTDNLSCLCPHLQNSIQLEQVNQMLNLTQEEITATVKVNLPFGRPRVLQKNVDNCLLYHREYVSGFGKAMRMPMWSSYTVPQLGDTSPLPPTVPDCLRADVRVPPSESQKCSFYLADENITHGFLYPPAINRTSDSQYDALIMSNLVPMYEEFRKMWDYFHSVLLIKHATERNGVNVVSGPIFDYNYDGHFDAPEEITKHIANTDIPIPTHYFVVLTSCKNKSHTPENCPGWLDVLPFIIPHRPTNVESCPEGKPEALWVEERLTAHIARVRDVELLTGLDFYQDKAQPVSEILQLKTYLPTFETTI
By Kd is commonly meant the constant that tells how readily two partners part at equilibrium. Read a low Kd as a tighter complex. B1: the equilibrium dissociation constant (Kd) in [1] was 110 nM; in [2], 320 nM; in assay [3], 21 nM; in [4], 140 nM; in assay [5], 330 nM; in [6], 70 nM.

B2: AN1[ENPP3]_H1_L1.33 (antibody, V domains shown)
VH: EVQLVESGGGLVQPGGSLRLSCAASGFAFSNYGMSWVRQAPGKRLEWVSYISSGGGTTYYLDSVKGRFTISRDNAKNSLYLQMNSLRAEDTAVYYCARHRRVYYGYYFDYWGQGTLVTVSS
VL: DILLTQSPDFQSVTPKEKVTITCRASQSIGTSIHWYQQKPDQSPKLLIEYASESISGIPSRFSGSGSGTDFTLTINSLEAEDAATYYCQQSNSWPYTFGGGTKLEIK
On to B2, for which the Kd in assay [7] is 1800 nM; in [8] it was 74 nM; in assay [9], 1200 nM; in assay [10], 170 nM.

B3: AN1[ENPP3]_H1L1 (antibody, V domains shown)
VH: EVQLVESGGGLVQPGGSLRLSCAASGFAFSNYGMSWVRQAPGKRLEWVSYISSGGGTTYYLDSVKGRFTISRDNAKNSLYLQMNSLRAEDTAVYYCARHRRVYYGYYFDYWGQGTLVTVSS
VL: DILLTQSPDFQSVTPKEKVTITCRASQSIGTSIHWYQQKPDQSPKLLIKYASESISGIPSRFSGSGSGTDFTLTINSLEAEDAATYYCQQSNSWPYTFGGGTKLEIK
Take B3: the Kd worked out at 460 nM in assay [7], 9 nM in [8], 470 nM in assay [9] and 35 nM in [10].

B4: H1.14_L1 (antibody, V domains shown)
VH: EVQLLESGGGLVQPGGSLRLSCAASGFTFSSYAMSWVRQAPGKGLEWVSTISGSGDSTYYADSVKGRFTISRDNSKNTLYLQMNSLRAEDTAVYYCAKSGPGLRQVGFDYWGQGTLVTVSS
VL: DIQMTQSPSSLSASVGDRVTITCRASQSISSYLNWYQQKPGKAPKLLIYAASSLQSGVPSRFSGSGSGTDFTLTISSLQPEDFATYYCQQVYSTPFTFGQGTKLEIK
With B4, the dissociation constant Kd in [11] was 230 nM.

B5: H1.1_L1 (antibody, V domains shown)
VH: EVQLLESGGGLVQPGGSLRLSCAASGFTFSSYYMSWVRQAPGKGLEWVSTISGSGDSTYYADSVKGRFTISRDNSKNTLYLQMNSLRAEDTAVYYCAKSGPGLRQVGFDYWGQGTLVTVSS
VL: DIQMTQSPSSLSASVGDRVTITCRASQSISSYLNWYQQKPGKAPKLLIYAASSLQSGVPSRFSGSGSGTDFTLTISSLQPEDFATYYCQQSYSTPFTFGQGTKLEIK
The molecule B5 had a dissociation constant (Kd) in assay [11] of 600 nM.

B6: H1L1 (antibody, V domains shown)
VH: EVQLLESGGGLVQPGGSLRLSCAASGFTFSSYAMSWVRQAPGKGLEWVSTISGSGDSTYYADSVKGRFTISRDNSKNTLYLQMNSLRAEDTAVYYCAKSGPGLRQVGFDYWGQGTLVTVSS
VL: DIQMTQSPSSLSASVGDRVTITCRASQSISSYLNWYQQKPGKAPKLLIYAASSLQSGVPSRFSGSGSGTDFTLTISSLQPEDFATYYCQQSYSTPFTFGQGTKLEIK
On to B6, for which, in [11], the Kd was 1000 nM.

B7: H1_L1.71 (antibody, V domains shown)
VH: EVQLLESGGGLVQPGGSLRLSCAASGFTFSSYYMSWVRQAPGKGLEWVSTISGSGDSTYYADSVKGRFTISRDNSKNTLYLQMNSLRAEDTAVYYCAKSGPGLRQVGFDYWGQGTLVTVSS
VL: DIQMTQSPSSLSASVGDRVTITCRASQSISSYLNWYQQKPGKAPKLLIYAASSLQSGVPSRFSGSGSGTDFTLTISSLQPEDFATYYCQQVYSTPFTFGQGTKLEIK
The molecule B7 yielded a Kd in assay [11] of 180 nM. This Kd lies about 5.6-fold lower than the previous one.

B8: H1.14_L1.71 (antibody, V domains shown)
VH: EVQLLESGGGLVQPGGSLRLSCAASGFTFSSYYMSWVRQAPGKGLEWVSTISESGDSTYYADSVKGRFTISRDNSKNTLYLQMNSLRAEDTAVYYCAKSGPGLRQVGFDYWGQGTLVTVSS
VL: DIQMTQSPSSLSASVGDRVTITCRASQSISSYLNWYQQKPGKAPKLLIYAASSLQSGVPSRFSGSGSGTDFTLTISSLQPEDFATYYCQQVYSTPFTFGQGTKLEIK
The molecule B8 came in with a dissociation constant (Kd) in assay [11] of 37 nM.

B9: H1.1_L1.71 (antibody, V domains shown)
VH: EVQLLESGGGLVQPGGSLRLSCAASGFTFSSYYMSWVRQAPGKGLEWVSTISESGDSTYYADSVKGRFTISRDNSKNTLYLQMNSLRAEDTAVYYCAKSGPGLRQVGFDYWGQGTLVTVSS
VL: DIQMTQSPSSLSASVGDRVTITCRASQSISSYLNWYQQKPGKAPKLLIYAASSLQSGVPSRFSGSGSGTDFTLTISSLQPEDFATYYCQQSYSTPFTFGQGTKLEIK
For the molecule B9, binding in assay [11] was characterised by a dissociation constant (Kd) of 96 nM.
